The source of these data is patent US20170298096A1 (CANIMGUIDE THERAPEUTICS, published 2017).

The first test addresses T1, His-tagged P3028 peptide (PGE73) (human).
T1 construct: also called His-tag-P3028; not shown: His-tag
T1 peptide: VFDEFKPLVEEPQNLIK
Nature of the test: PEPSCAN ELISA; peptide on card, His-tagged P3028 in solution. In general terms: In an ELISA, binding on a coated surface is turned into a signal by an enzyme label.
In the case of KKGDTFFVKLSLFTER (P28R variant on PEPSCAN card) [SEQ ID NO: 4], the RAMPO Score is above 500 rampo units.
Still for that read-out and setting: under KKEDTFFVKLSLFTER (P28R variant on PEPSCAN card) [SEQ ID NO: 5] stands above 500 rampo units; under KKLDTFFVKLMLFTER (P28R variant on PEPSCAN card) [SEQ ID NO: 16], above 500 rampo units.
KKLDTFFVKLHLFTER (P28R variant on PEPSCAN card) [SEQ ID NO: 18] showed an RAMPO Score above 500 rampo units.
As for KKLDTFFVKLTLFTER (P28R variant on PEPSCAN card) [SEQ ID NO: 17], the RAMPO Score was above 500 rampo units.
The same measure, in the same setting: under KKLDTFMVKLSLFTER (P28R variant on PEPSCAN card) [SEQ ID NO: 9] stands above 500 rampo units; under KKLDTFVVKLSLFTER (P28R variant on PEPSCAN card) [SEQ ID NO: 11], above 500 rampo units.
Still for that read-out and setting: under KKLDTFTVKLSLFTER (P28R variant on PEPSCAN card) [SEQ ID NO: 12] stands above 500 rampo units; under KKLDTFSVKLSLFTER (P28R variant on PEPSCAN card) [SEQ ID NO: 10], above 500 rampo units; under KKLDTFLVKLSLFTER (P28R variant on PEPSCAN card) [SEQ ID NO: 13], above 500 rampo units.
Consider KKLDQFFVKLSLFTER (P28R variant on PEPSCAN card) [SEQ ID NO: 6], for which the RAMPO Score is above 500 rampo units.
KKLDTFFVKLQLFTER (P28R variant on PEPSCAN card) [SEQ ID NO: 15] yielded an RAMPO Score above 500 rampo units.
RKLDTFFVKLSLFTER (P28R variant on PEPSCAN card) [SEQ ID NO: 3] came in with an RAMPO Score above 500 rampo units.
Still for that read-out and setting: in the case of KKLDTFFVKLSQFTER (P28R variant on PEPSCAN card) [SEQ ID NO: 19] it was above 500 rampo units; in that of KKLDTFFVKLSVFTER (P28R variant on PEPSCAN card) [SEQ ID NO: 20], above 500 rampo units.
KKLDTFFVKLSMFTER (P28R variant on PEPSCAN card) [SEQ ID NO: 21] yielded an RAMPO Score above 500 rampo units.
The same measure, in the same setting: under KKLDTFFVKLSLQTER (P28R variant on PEPSCAN card) [SEQ ID NO: 23] stands above 500 rampo units.
The same measure, in the same setting: under KKLDTFFVKLSLHTER (P28R variant on PEPSCAN card) [SEQ ID NO: 24] stands above 500 rampo units; under KKLDTFFVKLSLSTER (P28R variant on PEPSCAN card) [SEQ ID NO: 27], above 500 rampo units; under KKLDTFFVKLSLNTER (P28R variant on PEPSCAN card) [SEQ ID NO: 25], above 500 rampo units.
On the same count and under the same terms, in the case of KKLDTFFVKLSLGTER (P28R variant on PEPSCAN card) [SEQ ID NO: 28] it was above 500 rampo units.
In turn, KKLDTFFVKLSLATER (P28R variant on PEPSCAN card) [SEQ ID NO: 29] had an RAMPO Score above 500 rampo units.
The same measure, in the same setting: in the case of KKLDTFFVKLSLPTER (P28R variant on PEPSCAN card) [SEQ ID NO: 26] it was above 500 rampo units.
Same read-out and setting: in the case of KKLDTFFVKLSLRTER (P28R variant on PEPSCAN card) [SEQ ID NO: 30] it was above 500 rampo units.
KKLDTFFVKLSLFNER (P28R variant on PEPSCAN card) [SEQ ID NO: 31]: the RAMPO Score is above 500 rampo units.
Same read-out and setting: under KKLDTFFVKLSLFPER (P28R variant on PEPSCAN card) [SEQ ID NO: 32] stands above 500 rampo units; under KKLDTFFVKLSLFRER (P28R variant on PEPSCAN card) [SEQ ID NO: 33], above 500 rampo units.
Turning to KKLDTAFVKLSLFTER (P28R variant on PEPSCAN card) [SEQ ID NO: 7], the RAMPO Score is above 500 rampo units.
On the same count and under the same terms, in the case of KKLDTVFVKLSLFTER (P28R variant on PEPSCAN card) [SEQ ID NO: 8] it was above 500 rampo units; in that of KKLDTFFVKLSLMTER (P28R variant on PEPSCAN card) [SEQ ID NO: 22], above 500 rampo units; in that of KKLDTFFVKVSLFTER (P28R variant on PEPSCAN card) [SEQ ID NO: 14], above 500 rampo units.

The target of the next test is Artificial Cell Surface (ACS): biotinylated cell surface proteins of PBMCs bound to streptavidin columns. Briefly: trypsin-digested dHSA adsorbed on ACS column, MALDI-TOF ms.
CCAAADPHECYAK gave a Percent Absorbed of 32%.
YLYEIAR [albumin fragment YLYEIAR] had a Percent Absorbed of 34%.
The same measure, in the same setting: in the case of FKDLGEENFK it was 8%; in that of LDELRDEGK, 2%; in that of AVMDDFAAFVEK, 23%.
Still for that read-out and setting: in the case of AAFTECCQAADK it was 29%.
Same read-out and setting: under CCTESLVNR stands 26%.
With YICENQDSISSK, the Percent Absorbed came out at 3%.
Same read-out and setting: in the case of KYLYEIAR [albumin fragment KYLYEIAR] it was 71%; in that of DDNPNLPR [albumin fragment DDNPNLPR], 1%; in that of NECFLQHK [albumin fragment NECFLQHK], 22%.
The same measure, in the same setting: in the case of QNCELFEQLGEYK [albumin fragment O…] it was 20%.
The same measure, in the same setting: under VHTECCHGDLLECADDR stands 13%; under KVPQVSTPTLVEVSR, 64%.

A further test addresses Artificial Cell Surface (ACS): biotinylated cell surface proteins from mononuclear cells coupled to streptavidin-sepharose. Nature of the test: adsorption on ACS column, MALDI-TOF MS.
For the molecule LAKYICENQDSISSKLKECCEKPLLEKHCIAEVEN [Asp-N-generated albumin fragment SEQ ID NO: 226], the Percent Absorbed was 100%.
On the same count and under the same terms, under YLSVVLNQLCVLHEKTPVSDRVTKCCCTESLVNRRPFSALEV [Asp-N-generated albumin fragment SEQ ID NO: 230] stands 37%; under DSISSKLKECCEKPLLEKSHCIAEVEN [Asp-N-generated albumin fragment SEQ ID NO: 221], 65%; under DRVTKCCTESLVNRRPCFSALEV [Asp-N-generated albumin fragment SEQ ID NO: 219], 87%.
Same read-out and setting: under LDELRDEGK [trypsin-generated albumin fragment SEQ ID NO: 215 …] stands 2%.
Same read-out and setting: in the case of LGEENFKALVLIAFAQYLQQCPFEDHVKLVNEVTEFAKTCVA [Asp-N-generated albumin fragment SEQ ID NO: 228] it was 100%; in that of VFLGMFLYEYARRHPDYSVVLLLRLAKTYETTLEKCCAAA [Asp-N-generated albumin fragment SEQ ID NO: 227], 100%; in that of DDKETCFAEEGKKLVAASQAALGL [Asp-N-generated albumin fragment SEQ ID NO: 218], 100%.
DHVKLVNEVTEFAKTCVA [Asp-N-generated albumin fragment SEQ ID NO: 217] came in with a Percent Absorbed of 100%.
Same read-out and setting: under RVTKCCTESLVNRRPCFSALEVDETYVPKEFNAETFTFHA [Asp-N-generated albumin fragment SEQ ID NO: 229] stands 100%.
The same measure, in the same setting: in the case of DDNPNLPR [trypsin-generated albumin fragment SEQ ID NO: 216 DDNPNLPR] it was 1%.
Still for that read-out and setting: in the case of YSVVLLLRLAKTYETTLEKCCAAADPHECYAKVF [Asp-N-generated albumin fragment SEQ ID NO: 223] it was 100%; in that of DETYVPKEFNAETFTHA [Asp-N-generated albumin fragment SEQ ID NO: 220], 86%; in that of DKLCTVATLRETYGEM [Asp-N-generated albumin fragment SEQ ID NO: 222], 65%.
In turn, KLCTVATLRETYGEMADCCAKQEPERNECFLQHK [Asp-N-generated albumin fragment SEQ ID NO: 224] registered a Percent Absorbed of 100%.
Same read-out and setting: in the case of ICTLSEKERQIKKQTALVELVKHKPKATKEQLKAVM [Asp-N-generated albumin fragment SEQ ID NO: 225] it was 100%; in that of YICENQDSISSK [trypsin-generated albumin fragment SEQ ID NO: 214 …], 3%.
